From IntAct's records for PubMed 17986188

B1: Cell division protein FtsA (Escherichia coli (strain K12)), P0ABH0 (parent)
chain: MIKATDRKLVVGLEIGTAKVAALVGEVLPDGMVNIIGVGSCPSRGMDKGGVNDLESVVKCVQRAIDQAELMADCQISSVYLALSGKHISCQNEIGMVPISEEEVTQEDVENVVHTAKSVRVRDEHRVLHVIPQEYAIDYQEGIKNPVGLSGVRMQAKVHLITCHNDMAKNIVKAVERCGLKVDQLIFAGLASSYSVLTEDERELGVCVVDIGGGTMDIAVYTGGALRHTKVIPYAGNVVTSDIAYAFGTPPSDAEAIKVRHGCALGSIVGKDESVEVPSVGGRPPRSLQRQTLAEVIEPRYTELLNLVNEEILQLQEKLRQQGVKHHLAAGIVLTGGAAQIEGLAACAQRVFHTQVRIGAPLNITGLTDYAQEPYYSTAVGLLHYGKESHLNGEAEVEKRVTASVGSWIKRLNSWLRKEF
partner: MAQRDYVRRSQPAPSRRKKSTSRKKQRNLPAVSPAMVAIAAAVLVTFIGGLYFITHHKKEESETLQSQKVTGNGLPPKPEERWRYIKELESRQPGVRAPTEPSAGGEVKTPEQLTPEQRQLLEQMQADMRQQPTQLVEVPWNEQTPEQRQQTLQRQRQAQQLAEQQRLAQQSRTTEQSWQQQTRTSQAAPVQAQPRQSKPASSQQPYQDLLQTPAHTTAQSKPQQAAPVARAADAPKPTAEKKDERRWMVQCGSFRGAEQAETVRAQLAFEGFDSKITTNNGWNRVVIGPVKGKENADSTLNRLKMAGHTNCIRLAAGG
B2: Cell division protein FtsA (Escherichia coli (strain K12)), P0ABH0 (parent)
chain: B1 chain

Variants of: B1
Conditions: with ftsn_ecoli ftsN

effect of a mutation on the interaction | Variant
decreasing interaction strength | MIKATDRKLVVGLEIGTAKVAALVGEVLPDGMVNIIGVGSCPSRGMDKGGVNDLESVVKCVQRAIDQAPLMADCQISSVYLALSGKHISCQNEIGMVPISEEEVTQEDVENVVHTAKSVRVRDEHRVLHVIPQEYAIDYQEGIKNPVGLSGVRMQAKVHLITCHNDMAKNIVKAVERCGLKVDQLIFAGLASSYSVLTEDERELGVCVVDIGGGTMDIAVYTGGALRHTKVIPYAGNVVTSDIAYAFGTPPSDAEAIKVRHGCALGSIVGKDESVEVPSVGGRPPRSLQRQTLAEVIEPRYTELLNLVNEEILQLQEKLRQQGVKHHLAAGIVLTGGAAQIEGLAACAQRVFHTQVRIGAPLNITGLTDYAQEPYYSTAVGLLHYGKESHLNGEAEVEKRVTASVGSWIKRLNSWLRKEF [E69P]
decreasing interaction strength | MIKATDRKLVVGLEIGTAKVAALVGEVLPDGMVNIIGVGSCPSRGMDKGGVNDLESVVKCVQRAIDQAELAADCQISSVYLALSGKHISCQNEIGMVPISEEEVTQEDVENVVHTAKSVRVRDEHRVLHVIPQEYAIDYQEGIKNPVGLSGVRMQAKVHLITCHNDMAKNIVKAVERCGLKVDQLIFAGLASSYSVLTEDERELGVCVVDIGGGTMDIAVYTGGALRHTKVIPYAGNVVTSDIAYAFGTPPSDAEAIKVRHGCALGSIVGKDESVEVPSVGGRPPRSLQRQTLAEVIEPRYTELLNLVNEEILQLQEKLRQQGVKHHLAAGIVLTGGAAQIEGLAACAQRVFHTQVRIGAPLNITGLTDYAQEPYYSTAVGLLHYGKESHLNGEAEVEKRVTASVGSWIKRLNSWLRKEF [M71A]

Variants of: B2
Conditions: with ftsz_ecoli ftsZ

effect of a mutation on the interaction | Variant
decreasing interaction strength | MIKATDRKLVVGLEIGTAKVAALVGEVLPDGMVNIIGVGSCPSRGMDKGGVNDLESVVKCVQRAIDQAPLMADCQISSVYLALSGKHISCQNEIGMVPISEEEVTQEDVENVVHTAKSVRVRDEHRVLHVIPQEYAIDYQEGIKNPVGLSGVRMQAKVHLITCHNDMAKNIVKAVERCGLKVDQLIFAGLASSYSVLTEDERELGVCVVDIGGGTMDIAVYTGGALRHTKVIPYAGNVVTSDIAYAFGTPPSDAEAIKVRHGCALGSIVGKDESVEVPSVGGRPPRSLQRQTLAEVIEPRYTELLNLVNEEILQLQEKLRQQGVKHHLAAGIVLTGGAAQIEGLAACAQRVFHTQVRIGAPLNITGLTDYAQEPYYSTAVGLLHYGKESHLNGEAEVEKRVTASVGSWIKRLNSWLRKEF [E69P]
increasing interaction strength | R286W
